Source: patent US6787329

Test system: T1, TMR-Val-Pro-Arg-Gly-Lys-TMR
T1 sequence: XPRGX

trypsin gave an average fluorescence ratio w/ trypsin : w/o trypsin, excitation 360 nm, emission 570-585 nm of 26 fold, an average fluorescence ratio w/ trypsin : w/o trypsin, excitation 522 nm, emission 570-585 nm of 28 fold and an average fluorescence ratio w/ trypsin : w/o trypsin, excitation 530 nm, emission 570-585 nm of 27 fold. For the same substance, the average fluorescence ratio w/ trypsin : w/o trypsin, excitation 553 nm, emission 570-585 nm was 25 fold, the fluorescence ratio w/ trypsin : w/o trypsin, excitation 360 nm, emission 570 nm was 27 fold and the fluorescence ratio w/ trypsin : w/o trypsin, excitation 360 nm, emission 571 nm was 25 fold. It also gave a fluorescence ratio w/ trypsin : w/o trypsin, excitation 360 nm, emission 572 nm of 25 fold, a fluorescence ratio w/ trypsin : w/o trypsin, excitation 360 nm, emission 573 nm of 25 fold and a fluorescence ratio w/ trypsin : w/o trypsin, excitation 360 nm, emission 574 nm of 27 fold. For the same substance, the fluorescence ratio w/ trypsin : w/o trypsin, excitation 360 nm, emission 575 nm was 24 fold, the fluorescence ratio w/ trypsin : w/o trypsin, excitation 360 nm, emission 576 nm was 24 fold and the fluorescence ratio w/ trypsin : w/o trypsin, excitation 360 nm, emission 577 nm was 26 fold. The fluorescence ratio w/ trypsin : w/o trypsin, excitation 360 nm, emission 578 nm was 26 fold, the fluorescence ratio w/ trypsin : w/o trypsin, excitation 360 nm, emission 579 nm was 25 fold and the fluorescence ratio w/ trypsin : w/o trypsin, excitation 360 nm, emission 580 nm was 27 fold. For the same substance, the fluorescence ratio w/ trypsin : w/o trypsin, excitation 360 nm, emission 581 nm was 27 fold, the fluorescence ratio w/ trypsin : w/o trypsin, excitation 360 nm, emission 582 nm was 26 fold and the fluorescence ratio w/ trypsin : w/o trypsin, excitation 360 nm, emission 583 nm was 28 fold. The fluorescence ratio w/ trypsin : w/o trypsin, excitation 360 nm, emission 584 nm was 24 fold, the fluorescence ratio w/ trypsin : w/o trypsin, excitation 360 nm, emission 585 nm was 27 fold and the fluorescence ratio w/ trypsin : w/o trypsin, excitation 522 nm, emission 570 nm was 29 fold. For the same substance, the fluorescence ratio w/ trypsin : w/o trypsin, excitation 522 nm, emission 571 nm was 27 fold, the fluorescence ratio w/ trypsin : w/o trypsin, excitation 522 nm, emission 572 nm was 29 fold and the fluorescence ratio w/ trypsin : w/o trypsin, excitation 522 nm, emission 573 nm was 29 fold. The fluorescence ratio w/ trypsin : w/o trypsin, excitation 522 nm, emission 574 nm was 27 fold, the fluorescence ratio w/ trypsin : w/o trypsin, excitation 522 nm, emission 575 nm was 27 fold and the fluorescence ratio w/ trypsin : w/o trypsin, excitation 522 nm, emission 576 nm was 29 fold. For the same substance, the fluorescence ratio w/ trypsin : w/o trypsin, excitation 522 nm, emission 577 nm was 27 fold, the fluorescence ratio w/ trypsin : w/o trypsin, excitation 522 nm, emission 578 nm was 28 fold and the fluorescence ratio w/ trypsin : w/o trypsin, excitation 522 nm, emission 579 nm was 27 fold. The fluorescence ratio w/ trypsin : w/o trypsin, excitation 522 nm, emission 580 nm was 29 fold, the fluorescence ratio w/ trypsin : w/o trypsin, excitation 522 nm, emission 581 nm was 27 fold and the fluorescence ratio w/ trypsin : w/o trypsin, excitation 522 nm, emission 582 nm was 29 fold. For the same substance, the fluorescence ratio w/ trypsin : w/o trypsin, excitation 522 nm, emission 583 nm was 28 fold, the fluorescence ratio w/ trypsin : w/o trypsin, excitation 522 nm, emission 584 nm was 27 fold and the fluorescence ratio w/ trypsin : w/o trypsin, excitation 522 nm, emission 585 nm was 28 fold. It also gave a fluorescence ratio w/ trypsin : w/o trypsin, excitation 530 nm, emission 570 nm of 28 fold, a fluorescence ratio w/ trypsin : w/o trypsin, excitation 530 nm, emission 571 nm of 28 fold and a fluorescence ratio w/ trypsin : w/o trypsin, excitation 530 nm, emission 572 nm of 27 fold. The fluorescence ratio w/ trypsin : w/o trypsin, excitation 530 nm, emission 573 nm was 28 fold, the fluorescence ratio w/ trypsin : w/o trypsin, excitation 530 nm, emission 574 nm was 27 fold and the fluorescence ratio w/ trypsin : w/o trypsin, excitation 530 nm, emission 575 nm was 28 fold. For the same substance, the fluorescence ratio w/ trypsin : w/o trypsin, excitation 530 nm, emission 576 nm was 27 fold, the fluorescence ratio w/ trypsin : w/o trypsin, excitation 530 nm, emission 577 nm was 28 fold and the fluorescence ratio w/ trypsin : w/o trypsin, excitation 530 nm, emission 578 nm was 27 fold. It also gave a fluorescence ratio w/ trypsin : w/o trypsin, excitation 530 nm, emission 579 nm of 26 fold, a fluorescence ratio w/ trypsin : w/o trypsin, excitation 530 nm, emission 580 nm of 27 fold and a fluorescence ratio w/ trypsin : w/o trypsin, excitation 530 nm, emission 581 nm of 27 fold. It also gave a fluorescence ratio w/ trypsin : w/o trypsin, excitation 530 nm, emission 582 nm of 27 fold, a fluorescence ratio w/ trypsin : w/o trypsin, excitation 530 nm, emission 583 nm of 27 fold and a fluorescence ratio w/ trypsin : w/o trypsin, excitation 530 nm, emission 584 nm of 27 fold. It also gave a fluorescence ratio w/ trypsin : w/o trypsin, excitation 530 nm, emission 585 nm of 27 fold, a fluorescence ratio w/ trypsin : w/o trypsin, excitation 553 nm, emission 570 nm of 25 fold and a fluorescence ratio w/ trypsin : w/o trypsin, excitation 553 nm, emission 571 nm of 25 fold. It also gave a fluorescence ratio w/ trypsin : w/o trypsin, excitation 553 nm, emission 572 nm of 25 fold, a fluorescence ratio w/ trypsin : w/o trypsin, excitation 553 nm, emission 573 nm of 25 fold and a fluorescence ratio w/ trypsin : w/o trypsin, excitation 553 nm, emission 574 nm of 25 fold. The fluorescence ratio w/ trypsin : w/o trypsin, excitation 553 nm, emission 575 nm was 24 fold, the fluorescence ratio w/ trypsin : w/o trypsin, excitation 553 nm, emission 576 nm was 25 fold and the fluorescence ratio w/ trypsin : w/o trypsin, excitation 553 nm, emission 577 nm was 25 fold. For the same substance, the fluorescence ratio w/ trypsin : w/o trypsin, excitation 553 nm, emission 578 nm was 25 fold, the fluorescence ratio w/ trypsin : w/o trypsin, excitation 553 nm, emission 579 nm was 24 fold and the fluorescence ratio w/ trypsin : w/o trypsin, excitation 553 nm, emission 580 nm was 25 fold. It also gave a fluorescence ratio w/ trypsin : w/o trypsin, excitation 553 nm, emission 581 nm of 24 fold, a fluorescence ratio w/ trypsin : w/o trypsin, excitation 553 nm, emission 582 nm of 25 fold and a fluorescence ratio w/ trypsin : w/o trypsin, excitation 553 nm, emission 583 nm of 24 fold. It also gave a fluorescence ratio w/ trypsin : w/o trypsin, excitation 553 nm, emission 584 nm of 25 fold and a fluorescence ratio w/ trypsin : w/o trypsin, excitation 553 nm, emission 585 nm of 25 fold.

“trypsin-like enzyme of Vibrio parahaemolyticus” was tested, and the “increase in fluorescence on cleavage of the substrate” value was “Cleavage by the trypsin-like enzyme produced an increase in fluorescence”.
